# Assays:
# β-Amyloid (1-42) = β-Amyloid (1-42) (Homo sapiens, UniProt P05067); assay: β-Amyloid (1-42) fibrillation assay (ThT binding to amyloid); type: biochemical; conditions: 50 μM β-Amyloid plus 50 μM peptide; time range of 60-240 min; three replicates
# Description: FIGS. 21A-21C show inhibition of β-Amyloid (1-42) fibrillation by C- (C-pep) and Cα-peptides (Cα-pep). […] FIG. 21B is a box-whisker plot on C- and Cα-pep inhibition of β-Amyloid fibrillation in time range of 60-240 min. […] Fluorescence intensity (F.I.) represents ThT binding to amyloid. AUC represents area under curve calculated by Trapezoid rule. Aβ(1-42) represents 50 μM β-Amyloid plus buffer, C-pep represents 50 μM β-Amyloid plus 50 μM C-pep, and Cα-pep represents 50 μM β-Amyloid plus 50 μM Cα-pep.
# Thioflavin T (ThT) was from MilliporeSigma (catalog number T3516; Rockville, MD). IAPP (37 AA) (catalog number LT110006) (amidated C-terminal and disulfide bridge between Cys2 and Cys7) was from LifeTein (Hillsborough, NJ), and C-peptide (catalog number AS-61127) was from AnaSpec (Fremont, CA). Cα-peptide was custom made (Genemed Synthesis, Inc., San Antonio, TX). Black 96-well microplates (chimney well) were from Greiner Bio-One (Frickenhausen, Germany). […] Amyloid kinetics were measured by increasing ThT fluorescent amyloid binding intensity (1ex 440 nm; 1em 485 nm; height 3 mm; flashes 12) for 36 cycles, 5 min per cycle, at 37° C. with 15 s of shaking (100 rpm) between the reads in the EnSpire Multimode Plate Reader (PerkinElmer, Inc., Waltham, MA).
# IAPP = molecular target: T1, IAPP (Homo sapiens, UniProt P10997); assay: IAPP aggregation assay (Thioflavin T fluorescence); type: biochemical; conditions: 50 mmol/L IAPP plus 50 mmol/L peptide; 37° C.; range of 90-130 min; three replicates
# T1 construct: IAPP (37 AA) (catalog number LT110006) (amidated C-terminal and disulfide bridge between Cys2 and Cys7) was from LifeTein; purchased LifeTein (Hillsborough, NJ) LT110006
# T1 sequence (P10997 34-70 limits assumed): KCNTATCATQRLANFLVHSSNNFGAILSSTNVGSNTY
# Source text: Thioflavin T (ThT) was from MilliporeSigma (catalog number T3516; Rockville, MD). IAPP (37 AA) (catalog number LT110006) (amidated C-terminal and disulfide bridge between Cys2 and Cys7) was from LifeTein (Hillsborough, NJ), and C-peptide (catalog number AS-61127) was from AnaSpec (Fremont, CA). Cα-peptide was custom made (Genemed Synthesis, Inc., San Antonio, TX). Black 96-well microplates (chimney well) were from Greiner Bio-One (Frickenhausen, Germany). Soluble and monomeric IAPP was made according to published protocols (Stine et al., Methods Mol. Biol. 670:13-32, 2011; Tu et al., Biochemistry 54:666-676, 2015), and the AnaSpec Manual of SensoLyte Thioflavin T Aggregation Kit (catalog number AS-72214) was used for the IAPP aggregation assay, with final concentration of 1% DMSO and […] ThT in component A buffer. The buffer was used as blank and IAPP without inhibitors, and the final concentration of IAPP and C- and Cα-peptides was […] each in the inhibition assays. Amyloid kinetics were measured by increasing ThT fluorescent amyloid binding intensity (1ex 440 nm; 1em 485 nm; height 3 mm; flashes 12) for 36 cycles, 5 min per cycle, at 37° C. with 15 s of shaking (100 rpm) between the reads in the EnSpire Multimode Plate Reader (PerkinElmer, Inc., Waltham, MA).
# Chain of β-Amyloid (1-42) (P05067 672-713 limits assumed): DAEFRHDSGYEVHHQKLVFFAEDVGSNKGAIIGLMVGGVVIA
Substance,"inhibition of β-Amyloid fibrillation (ThT fluorescence intensity, AUC) (β-Amyloid (1-42))","inhibition of IAPP fibrillation (ThT fluorescence intensity, AUC) (IAPP)"
"C-peptide: classical 31-AA human insulin C-peptide, AnaSpec catalog number AS-61127 (EAEDLQVGQVELGGGPGAGSLQPLALEGSLQ)",not,inhibition of IAPP fibrillation
"EAEDLQGSLQPLALEGSLQ (C-alpha peptide; listed as Homo sapiens) [Cα-peptide, human 19-AA insulin C-peptide variant encoded by INS3B isoform; custom made by Genemed Synthesis]",inhibits,inhibited IAPP fibrillation more efficiently than C-peptide

# Reference: US20240190937A1, “HUMAN INSULIN C-ALPHA-PEPTIDES AND METHODS OF USE” (The United States of America, as represented by the …, priority 2021, published 2024)
